Sequences and labels used below:
B1: Rho guanine nucleotide exchange factor TIAM2 (Mus musculus), Q6ZPF3 (parent)
chain: MGNSESQYTFQGSKNHSNTVTGAKQKPCSLKIRSVHAKDEKSLHGWTHGSSGAGYKSRSLARSCLSHFKNHQPYATRLSGPTCKVSKGTTYSKHRANTPGNDFQGNSGAFLPENGFHYVDRESEESHITSNGHLLTCYGRKESLASTPPGEDHRSPRVLIKTLGKLDGCLRVEFHNGGNPHKGTSEDPSGPVRLLRYSPTLASETCPVRETRRHSAAGSPSSQRPSPTDSRLRSSKGSSLSSESSWYDSPWGNAGEVSEVEGSFLAPSTPDPSLPSSFPPSDTKKPFNQSSSLSSLRELYKDPNLGCRSPSGTCLSSNEYISSQVSLNNRVSFASDMDVPSRVDHRDPLHYSSFTLPCRKSKALTEDAAKKDTLKARMRRFSDWTGSLSRKKRKLQEPRSMEGSEYFDSHSDGLNAEGQVPAQTSSLLWSGGSAQTLPHRSESTHAISVDPLRQNIYENFMRELEMSRSNTEHVETSTETMESSSESVSSLEQLDLLFEKEQGVVRKAGWLFFKPLVTLQKERKLELVARRKWKQYWVTLKGCTLLFYETYGKNSTEQNSAPRCALFAEDSIVQSVPEHPKKEHVFCLSNSCGDVYLFQATSQTDLENWVTAIHSACASLFAKKHGKEDTVRLLKSQTRSLLQKIDMDSKMKKMAELQLSVVSDPKNRKAIENQIRQWEQNLEKFHMDLFRMRCYLASLQGGELPNPKSLLAATSRPSKLALGRLGVLSVSSFHALVCSRDDSTLRKRTLSLTQRGKSKKGIFSSLKGLDTLARKGREKRASITQMFDSSHSHGFLGTQLPQKSTNSNKAHDLHLYGSAVDSALRDSMWEVQTYVHFQDNEGVTVTIKPEHRVEDVLALVCKMRQLEPTHYGLQLRKVVDKSVEWCVPALYEYMQEQVYDEIEVFPLSVYDVQLTKTGDMTDFGFAVTVQVDEHQHLNRIFISDVLPDSLAYGGGLRKGNEITSLNGEPVSDLDIQQMEALFSEKSVGLTLVARPVTTRRTLCASWSDSDLFSRDQKSLPPSPNQSQLLEEFLDNFRKTATSDFSNVPEITTGLKRSQTEGTLDQVPHREKMEQTFLSADQIAELCRDLNNTHTNSMEAPTESHDPPPRPLARHLSDADRLRKVIQELVDTEKSYVKDLSCLFELYLEPLQNETFLTQDEMESLFGSLPEMLEFQKVFLETLEDAISASSDFSVLETPSQFRKLLFSLGGSFLYYADHFKLYSGFCANHIKVQRVLERAKTDKAFKAFLDARNPTKQHSSTLESYLIKPVQRVLKYPLLLKELVSLTDHESEEHYHLTEALKAMEKVASHINEMQKIYEDYGMVFDQLVAEQSGTEKEVTELSMGELLMHSTVSWLNPFLSLGKARKDIELTVFVFKRAVILVYKENCKLKKKLPSNSRPAHNSADLDPFKFRWLIPISALQVRLGNTAGTENNSTWELIHTKSEIEGRPETIFQLCCSDSENKTSIVKVIRSILRENFRRHIKCELPLEKTCKDRLVPLKNRVPVSAKLASSRSLKGLRTSSSSEWPSEPSKGNSLDSDECSLSSGTQSSGCPVAESRRDSKSTELEKDAQEGLAEFPDGLIKESDILSDEDEDFHHPLKQGSPTKDIEIQFQRLKISEESDVHPVGQQPLTESGEQPKLVRGHFCPIKRKANSTKRGRGTLLKAQTRHQSLDSHPETASIDLNLVLEREFSVQSLTSVVNEEGFYETQSHGKS
partner: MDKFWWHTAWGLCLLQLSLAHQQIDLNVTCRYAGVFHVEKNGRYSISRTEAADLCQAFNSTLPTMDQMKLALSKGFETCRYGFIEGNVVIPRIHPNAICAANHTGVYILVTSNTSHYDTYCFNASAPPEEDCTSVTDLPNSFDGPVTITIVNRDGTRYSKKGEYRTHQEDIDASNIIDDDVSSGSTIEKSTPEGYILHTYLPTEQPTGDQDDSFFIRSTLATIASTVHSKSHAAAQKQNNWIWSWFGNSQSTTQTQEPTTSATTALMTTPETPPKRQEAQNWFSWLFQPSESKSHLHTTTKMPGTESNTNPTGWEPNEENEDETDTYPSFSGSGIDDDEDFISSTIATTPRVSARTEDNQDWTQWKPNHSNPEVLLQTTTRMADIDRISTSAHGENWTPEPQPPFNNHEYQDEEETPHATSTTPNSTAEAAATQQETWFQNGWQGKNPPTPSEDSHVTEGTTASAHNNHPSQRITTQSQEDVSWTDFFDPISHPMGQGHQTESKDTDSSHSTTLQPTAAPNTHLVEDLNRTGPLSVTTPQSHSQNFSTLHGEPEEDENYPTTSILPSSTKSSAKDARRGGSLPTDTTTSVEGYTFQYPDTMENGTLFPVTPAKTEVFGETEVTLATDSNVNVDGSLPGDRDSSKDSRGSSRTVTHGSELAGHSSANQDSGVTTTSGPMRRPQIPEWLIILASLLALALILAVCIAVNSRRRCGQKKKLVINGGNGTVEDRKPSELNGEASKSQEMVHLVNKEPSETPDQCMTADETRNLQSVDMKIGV
B2: CD44 antigen (Mus musculus), P15379 (parent)
chain: B1 partner
B3: Rho guanine nucleotide exchange factor TIAM2 (Mus musculus), Q6ZPF3 (parent)
chain: B1 chain
B4: Rho guanine nucleotide exchange factor TIAM1 (Mus musculus), Q60610 (parent)
chain: MGNAESQNVDHEFYGEKHASLGRKHTSRSLRLSHKTRRTRHASSGKAIHRNSEVSTRSSSTPSIPQSLAENGLEPFSQEGALDDFGDPIWVDRVDMGLRPVSYTDSSVTPSVDGSIVLTAASVQSMPDSEESRLYGDDATYLAEGGRRQCPYTSNGPTFMETASFKKKRSKSADIWREDSLEFSLSDLSQEHLTSNEEILGSAEEKDCEEARGMETEASPRQLSTCQRANSLGDLYAQKNSGVKANGGPRNRFSSYCRNLVSDIPDLAKHKMPPAAAEETPPYSNYNTLPCRKSHCLSEGATNPQISLSKSMQGRRAKTTQDVNTGEGSEFADSGIEGATTDTDLLSRRSNATNSSYSPPTGRAFVGSDSGSSSTGDRARQGVYENFRRELEMSTTNSESLEEAGSAHSDEQSSGTLSSPGQSDILLTAAQGTVRKAGALAVKNFLVHKKNKKVESATRRKWKHYWVSLKGCTLFFYETDGRSGIDHNSVPKHAVWVENSIVQAVPEHPKKDFVFCLSNSLGDAFLFQTTSQTELENWITAIHSACAAAVARHHHKEDTLRLLKSEIKKLEQKIDMDEKMKKMGEMQLSSVTDSKKKKTILDQIFVWEQNLEQFQMDLFRFRCYLASLQGGELPNPKRLLAFASRPTKVAMGRLGIFSVSSFHALVAARTGEIGVRRRTQAMSRSASKRRSRFSSLWGLDTTSKKKQGRPTINQVFGEGTDAVKRSLEGIFDDTVPDGKREKEVVLPSVHQHNPDCDIWVHEYFTPSWFCLPNNQPALTVVRPGDTARDTLELICKTHQLDHSAHYLRLKFLMENRVQFYIPQPEEDIYELLYKEIEICPKVTQNIHIEKSDAAADNYGFLLSSVDEDGIRRLYVNSVKETGLASKKGLKAGDEILEINNRAAGTLNSSMLKDFLSQPSLGLLVRTYPEPEGGVELLENPPHRVDGPVDLGESPLAFLTSNPGHSLSSEQGSSAETAPEEGEGPDLESSDETDHSSKSTEQVAAFCRSLHEMSPSDSSPSPQDATSPQLATTRQLSDADKLRKVICELLETERTYVKDLNCLMERYLKPLQKETFLTQDELDVLFGNLTEMVEFQVEFLKTLEDGVRLVPDLEKLEKVDQFKKVLFSLGGSFLYYADRFKLYSAFCASHTKVPKVLVKAKTDTAFKAFLDAQNPRQQHSSTLESYLIKPIQRVLKYPLLLRELFALTDAESEEHYHLDVAIKTMNKVASHINEMQKIHEEFGAVFDQLIAEQTGEKKEVADLSMGDLLLHTSVIWLNPPASLGKWKKEPELAAFVFKTAVVLVYKDGSKQKKKLVGSHRLSIYEEWDPFRFRHMIPTEALQVRALPSADAEANAVCEIVHVKSESEGRPERVFHLCCSSPESRKDFLKSVHSILRDKHRRQLLKTESLPSAQQYVPFGGKRLCALKGARPAMSRAVSAPSKSLGRRRRRLARNRFTIDSDAISASSPEKEPQQPAGGGDTDRWVEEQFDLAQYEEQDDIKETDILSDDDEFCESLKGASVDRDLQEQLQAASISQRARGRRTLDSHASRMTQLKKQAALSGINGGLESASEEVIWVRREDFAPSRKLNTEI

The variants in the first assay derive from B1. The note with it: with cd44_mouse Cd44, P15379.
As for R716A, the “effect of a mutation on the interaction” value is reported as “decreasing interaction”.

The next assay covers variants of B1. The note with it: with cd44_mouse Cd44, P15379. This is another data set of the same source.
Regarding R693A, the “effect of a mutation on the interaction” value is recorded as “decreasing interaction”.

In a further assay the parent is B1. The conditions noted are these: with cd44_mouse Cd44, P15379. The source holds these as a separate data set.
In the case of R632A, the “effect of a mutation on the interaction” value is given as “decreasing interaction”.

In a further assay the parent is B1. The conditions noted are these: with cd44_mouse Cd44, P15379. This is another data set of the same source.
Regarding K627A, the “effect of a mutation on the interaction” value is “decreasing interaction”.

A further assay covers variants of B1. The note with it: with cd44_mouse Cd44, P15379. This is another data set of the same source.
Turning to K624A, the “effect of a mutation on the interaction” value is reported as “decreasing interaction”.

In a further assay the parent is B2. The note with it: with tiam1_mouse Tiam1, Q60610.
Consider S754A, for which the “effect of a mutation on the interaction” value is reported as “decreasing interaction”.

The variants in the next assay derive from B2. The note with it: with tiam1_mouse Tiam1, Q60610. This is another data set of the same source.
As for C760S, the “effect of a mutation on the interaction” value is “disrupting interaction”.

Variants of B2 are the subject of the next assay. The conditions noted are these: with tiam1_mouse Tiam1, Q60610. This is another data set of the same source.
In the case of P753A, the “effect of a mutation on the interaction” value was “decreasing interaction”.

In another assay the parent is B2. The conditions noted are these: with tiam1_mouse Tiam1, Q60610. The source holds these as a separate data set.
As for T762A, the “effect of a mutation on the interaction” value is listed as “decreasing interaction”.

In another assay the parent is B2. The note with it: with tiam1_mouse Tiam1, Q60610. This is another data set of the same source.
Turning to E752K, the “effect of a mutation on the interaction” value is given as “disrupting interaction”.

In a further assay the parent is B2. The conditions noted are these: with tiam1_mouse Tiam1, Q60610. This is another data set of the same source.
In the case of E755K, the “effect of a mutation on the interaction” value is listed as “disrupting interaction”.

In a further assay the parent is B3. The note with it: with PARD3, Q8TEW0-2.
Sequence of PARD3, Q8TEW0-2 (Q8TEW0 other isoform, or with tags, fused parts or gaps): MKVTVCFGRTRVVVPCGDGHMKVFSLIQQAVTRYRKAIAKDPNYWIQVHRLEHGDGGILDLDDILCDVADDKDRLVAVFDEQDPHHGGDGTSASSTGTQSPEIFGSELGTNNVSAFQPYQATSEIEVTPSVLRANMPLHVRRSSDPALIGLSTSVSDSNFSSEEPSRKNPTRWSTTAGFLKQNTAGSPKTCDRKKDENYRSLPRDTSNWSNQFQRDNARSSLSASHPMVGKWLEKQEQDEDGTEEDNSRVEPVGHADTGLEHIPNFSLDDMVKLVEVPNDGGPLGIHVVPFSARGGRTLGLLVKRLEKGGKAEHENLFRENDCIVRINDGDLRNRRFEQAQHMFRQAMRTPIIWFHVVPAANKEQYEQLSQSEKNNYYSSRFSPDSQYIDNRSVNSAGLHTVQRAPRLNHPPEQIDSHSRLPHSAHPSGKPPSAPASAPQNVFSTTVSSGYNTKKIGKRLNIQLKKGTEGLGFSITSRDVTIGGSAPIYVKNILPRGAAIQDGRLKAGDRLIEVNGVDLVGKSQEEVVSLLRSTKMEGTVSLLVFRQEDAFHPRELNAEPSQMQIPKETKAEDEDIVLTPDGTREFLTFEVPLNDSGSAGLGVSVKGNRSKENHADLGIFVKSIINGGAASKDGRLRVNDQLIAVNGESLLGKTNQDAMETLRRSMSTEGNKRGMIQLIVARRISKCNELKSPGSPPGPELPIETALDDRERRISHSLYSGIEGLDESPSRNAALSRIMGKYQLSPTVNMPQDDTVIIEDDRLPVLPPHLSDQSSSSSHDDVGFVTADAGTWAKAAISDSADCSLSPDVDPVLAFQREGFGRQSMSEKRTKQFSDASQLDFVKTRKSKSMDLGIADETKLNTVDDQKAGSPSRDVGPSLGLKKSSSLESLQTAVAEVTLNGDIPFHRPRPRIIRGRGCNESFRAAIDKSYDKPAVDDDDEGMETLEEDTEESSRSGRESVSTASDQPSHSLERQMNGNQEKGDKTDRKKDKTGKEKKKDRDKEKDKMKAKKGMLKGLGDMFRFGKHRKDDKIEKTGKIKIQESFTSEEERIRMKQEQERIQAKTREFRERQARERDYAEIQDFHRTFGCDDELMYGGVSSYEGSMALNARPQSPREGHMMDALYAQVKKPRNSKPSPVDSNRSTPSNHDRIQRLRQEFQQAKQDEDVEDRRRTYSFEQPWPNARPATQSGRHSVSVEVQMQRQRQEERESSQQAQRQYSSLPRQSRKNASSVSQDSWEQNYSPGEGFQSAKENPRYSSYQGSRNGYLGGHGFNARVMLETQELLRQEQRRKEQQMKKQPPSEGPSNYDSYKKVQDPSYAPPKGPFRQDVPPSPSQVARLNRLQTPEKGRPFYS
For the variant R716A, the “effect of a mutation on the interaction” value was “decreasing interaction”.

The next assay covers variants of B3. The note with it: with pard3_human PARD3, Q8TEW0.
Target sequence in this assay (Q8TEW0 whole entry): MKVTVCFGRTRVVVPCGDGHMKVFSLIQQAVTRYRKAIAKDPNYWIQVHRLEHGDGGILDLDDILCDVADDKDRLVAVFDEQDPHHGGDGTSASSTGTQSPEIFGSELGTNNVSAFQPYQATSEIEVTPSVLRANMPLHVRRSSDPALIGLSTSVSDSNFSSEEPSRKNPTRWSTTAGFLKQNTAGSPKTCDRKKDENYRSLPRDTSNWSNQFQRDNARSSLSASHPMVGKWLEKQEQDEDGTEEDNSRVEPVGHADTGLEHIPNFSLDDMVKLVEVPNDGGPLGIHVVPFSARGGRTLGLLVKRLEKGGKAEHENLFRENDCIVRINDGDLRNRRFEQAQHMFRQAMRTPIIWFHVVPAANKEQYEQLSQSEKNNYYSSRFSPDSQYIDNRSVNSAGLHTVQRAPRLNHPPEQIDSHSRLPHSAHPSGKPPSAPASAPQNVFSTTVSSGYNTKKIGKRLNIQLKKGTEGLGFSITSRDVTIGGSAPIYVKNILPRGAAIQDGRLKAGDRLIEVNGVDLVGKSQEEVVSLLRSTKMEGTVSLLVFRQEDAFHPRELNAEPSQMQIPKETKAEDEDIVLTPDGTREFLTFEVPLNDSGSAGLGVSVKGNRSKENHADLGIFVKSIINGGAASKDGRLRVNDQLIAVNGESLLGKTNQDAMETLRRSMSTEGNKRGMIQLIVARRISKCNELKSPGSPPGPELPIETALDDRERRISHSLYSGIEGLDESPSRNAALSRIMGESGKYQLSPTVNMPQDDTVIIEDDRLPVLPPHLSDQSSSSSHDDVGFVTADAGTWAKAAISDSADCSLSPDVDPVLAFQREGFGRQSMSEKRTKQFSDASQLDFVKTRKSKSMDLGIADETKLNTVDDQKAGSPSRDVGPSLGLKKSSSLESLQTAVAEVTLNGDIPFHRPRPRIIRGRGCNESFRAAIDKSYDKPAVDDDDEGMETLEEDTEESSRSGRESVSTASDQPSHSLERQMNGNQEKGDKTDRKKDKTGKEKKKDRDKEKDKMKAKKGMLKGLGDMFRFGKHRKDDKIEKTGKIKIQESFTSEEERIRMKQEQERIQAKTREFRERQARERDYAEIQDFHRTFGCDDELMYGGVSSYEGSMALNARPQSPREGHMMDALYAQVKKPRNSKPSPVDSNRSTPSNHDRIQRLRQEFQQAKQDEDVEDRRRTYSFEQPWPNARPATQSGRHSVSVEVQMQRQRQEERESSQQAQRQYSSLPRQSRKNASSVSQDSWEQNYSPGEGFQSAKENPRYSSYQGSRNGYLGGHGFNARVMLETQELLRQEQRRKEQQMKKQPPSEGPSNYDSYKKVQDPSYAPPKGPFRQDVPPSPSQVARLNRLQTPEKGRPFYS
For the variant R716A, the “effect of a mutation on the interaction” value was “decreasing interaction”. With R693A, the “effect of a mutation on the interaction” value was “decreasing interaction”.

Variants of B3 are the subject of the next assay. The conditions noted are these: with PARD3, Q8TEW0-2. The source holds these as a separate data set.
Turning to R632A, the “effect of a mutation on the interaction” value is recorded as “decreasing interaction”.

Variants of B3 are the subject of a further assay. The note with it: with PARD3, Q8TEW0-2. The source holds these as a separate data set.
On to K624A, for which the “effect of a mutation on the interaction” value was “decreasing interaction”.

The variants in another assay derive from B3. The note with it: with PARD3, Q8TEW0-2. This is another data set of the same source.
For the variant K627A, the “effect of a mutation on the interaction” value is “decreasing interaction”.

A further assay covers variants of B3. The conditions noted are these: with PARD3, Q8TEW0-2. The source holds these as a separate data set.
For the variant R693A, the “effect of a mutation on the interaction” value is “decreasing interaction”.

Variants of B4 are the subject of another assay. The conditions noted are these: with pard3_human PARD3, Q8TEW0.
Target sequence in this assay (Q8TEW0 whole entry): as above
For R622A, the “effect of a mutation on the interaction” value is recorded as “decreasing interaction”. Consider R645A, for which the “effect of a mutation on the interaction” value is given as “decreasing interaction”.
